B1: RSPH3 (parent)
chain: KAASLARNLAKRRRTYLGGAAGRS

Variants of: B1
Assay: protein stability index of a GFP-peptide fusion (GPS, HEK-293T) (PSI 1-6); higher = more stable
Details: c terminus: a fixed tail appended
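Also: lentivirally expressed fusions sorted by FACS into six bins by GFP to DsRed ratio, PSI derived from sequencing read proportions per bin multiplied by bin number.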

Row | Variant | protein stability index
1 | G19A | 2.32
2 | R14E | 2.66
3 | R14Q | 2.57
4 | R14F | 1.02
5 | R14V | 2.24
6 | R14C | 2.96
7 | R14N | 1.99
8 | R14S | 3.11
9 | R14G | 1.73
10 | R14D | 1.41
11 | R14L | 1.84
12 | L5I | 2.58
13 | L5C | 2.89
14 | L5G | 4.8
15 | L5D | 4.65
16 | L5A | 4.18
17 | L5Q | 4.14
18 | L5W | 2.58
19 | L5T | 3.96
20 | L5M | 2.33
21 | L5F | 2.56
22 | L5V | 4.21
23 | N8Q | 1.35
24 | N8Y | 3.42

Row | Variant | protein stability index
25 | N8G | 3.98
26 | N8F | 2.33
27 | N8L | 2.26
28 | N8S | 2.88
29 | N8D | 3.23
30 | N8K | 2.52
31 | G18I | 2.86
32 | G18E | 2.45
33 | G18T | 1.97
34 | G18V | 2.36
35 | G18S | 1.69
36 | G18K | 2.35
37 | G18Y | 3.11
38 | G18L | 2.32
39 | G18F | 1.78
40 | G18H | 3.07
41 | G18M | 2.5
42 | G18A | 2.25
43 | R13V | 1.92
44 | R13T | 2.4
45 | R13D | 3.58
46 | R13W | 2.91
47 | R13S | 2.52
48 | R13A | 1.51

Row | Variant | protein stability index
49 | R13G | 2.11
50 | R13M | 3.77
51 | R13N | 3.36
52 | R13F | 3.92
53 | A6M | 2.52
54 | A6C | 1.06
55 | A6P | 3.94
56 | A6F | 2.23
57 | A6R | 2.56
58 | A6K | 2.4
59 | A6W | 1.58
60 | A6H | 2.2
61 | A6S | 3.07
62 | A6G | 3.27
63 | A6Y | 1.94
64 | A2G | 3
65 | A2F | 2.08
66 | A2I | 1.71
67 | A2T | 3.68
68 | A2Q | 3.13
69 | A2N | 3.47
70 | A2S | 3.04
71 | A2R | 3.91
72 | R12F | 1.68

Row | Variant | protein stability index
73 | R12C | 2.46
74 | R12Y | 1.18
75 | R12I | 2.24
76 | R12H | 2.41
77 | R12Q | 2.24
78 | R12G | 2.75
79 | R12N | 2.4
80 | R12K | 2.9
81 | L17W | 1.69
82 | L17H | 3.26
83 | L17S | 2.75
84 | L17M | 2.64
85 | L17E | 2.32
86 | L17R | 3.44
87 | L17G | 2.66
88 | L17K | 4.17
89 | L17F | 2.05
90 | L17Y | 3.3
91 | L17N | 3.18
92 | A10V | 2.43
93 | A10D | 3.14
94 | A10T | 3.17
95 | A10C | 1.98
96 | A10F | 1.29

Row | Variant | protein stability index
97 | A10S | 2.91
98 | A10N | 2.64
99 | A10H | 3.15
100 | A10G | 4.07
101 | T15D | 2.17
102 | T15V | 1.91
103 | T15F | 2.31
104 | T15Y | 1.29
105 | T15M | 3.14
106 | T15H | 2.09
107 | R7V | 1.98
108 | R7S | 2.58
109 | R7L | 2.51
110 | R7N | 3.59
111 | R7T | 2.08
112 | R7E | 4.36
113 | R7D | 3.83
114 | R7G | 2.54
115 | L9K | 4.94
116 | L9R | 4.9
117 | L9F | 2.44
118 | L9A | 3.41
119 | L9N | 4.46
120 | L9P | 3.94

Row | Variant | protein stability index
121 | L9W | 2.38
122 | L9E | 4.34
123 | A3P | 3.96
124 | A3F | 1.01
125 | A3H | 3.48
126 | A3N | 2.69
127 | A3E | 3.16
128 | A3G | 3.72
129 | A3Q | 3.71
130 | A3R | 3.01
131 | A3D | 3.02
132 | A3Y | 1.74
133 | A3K | 2.68
134 | Y16H | 3.32
135 | Y16G | 3.03
136 | Y16K | 2.49
137 | Y16L | 2.29
138 | Y16V | 2.17
139 | Y16M | 2.26
140 | Y16E | 1.86
141 | Y16A | 3.41
142 | Y16P | 3.04
143 | Y16F | 3.2
144 | Y16Q | 2.81

Row | Variant | protein stability index
145 | K11G | 2.49
146 | K11F | 1.92
147 | K11A | 1.64
148 | K11P | 2.89
149 | K11N | 2.36
150 | K11R | 2.91
151 | K11T | 1.56
152 | K11Q | 1.98
153 | K11I | 2.78
154 | K11W | 1.71
155 | S4E | 1.99
156 | S4R | 2.82
157 | S4H | 2.32
158 | S4V | 2.36
159 | S4I | 1.83
160 | S4C | 1.98
161 | S4W | 1.89
162 | S4N | 3.2
163 | S4Y | 1.48
164 | S4G | 3.32
165 | S4A | 1.89
166 | S4Q | 2.36
167 | S4D | 3.47

Source: the supplement of paper PMC10567573
